Drawing on patent US20210403565A1 (BIOATLA, published 2021), this text covers EC50 for one molecule.

The target in assay [1] is T1, recombinant human CTLA4 extracellular domain (human, UniProt P16410 36-161).
T1 construct: extracellular domain; also called huCTLA-4
T1 sequence (looked up): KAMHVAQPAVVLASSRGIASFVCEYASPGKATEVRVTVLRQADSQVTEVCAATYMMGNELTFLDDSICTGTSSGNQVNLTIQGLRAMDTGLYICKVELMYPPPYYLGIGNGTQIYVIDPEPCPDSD
The assay can be described thus: ELISA, wells coated with human CTLA4, assay pH 6.0; lot 6978 in Tris buffer, T0; unit from the axis Log[ng/mL]. As for the experimental part: Both ELISA and FACS analysis were used to measure the binding activity. […] The amount of bound antibodies was quantified using anti-human IgG antibody conjugated to HRP. The absorbance at 450 nm in each measurement was proportional to the amount of antibodies bound. […] EC50 value (in ng/mL) for binding to human CTLA4 was determined by absorbance at 450 nm against antibody concentration with Prism variable slope of four-parameter dose-response curve, which was calculated using the nonlinear fit (variable slope, four parameters) model built into GraphPad Prism software (version 7.03). The buffers tested included His buffer (His), Tris buffer (Tris), Glutamine buffer (Glu) and no buffer.

Assay [2] addresses T2, human CTLA4 expressed on the cell surface of CHO cells (human, UniProt P16410 36-223).
T2 construct: whole, on cells; also called CHO-huCTLA4; huCTLA4
T2 sequence (looked up): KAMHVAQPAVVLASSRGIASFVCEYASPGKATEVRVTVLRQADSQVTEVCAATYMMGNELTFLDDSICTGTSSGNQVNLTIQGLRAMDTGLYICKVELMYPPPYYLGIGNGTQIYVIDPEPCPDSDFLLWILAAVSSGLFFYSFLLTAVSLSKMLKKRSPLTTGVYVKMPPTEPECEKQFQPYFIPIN
The assay can be described thus: FACS, cells expressing human CTLA4, assay pH 6.0, MFI; lot 6978 in His buffer, T0; unit from the axis Log[ng/mL]. On the procedure: The amount of bound antibodies was quantified using anti-human IgG antibody conjugated to fluorophores. The MFI in each reaction was proportional to the amount of antibodies bound. The EC₅₀ value (in ng/mL) for binding to human CTLA4 on cells was determined by MFI of the singlets population against antibody concentration with a Prism variable slope of four-parameter dose-response curve, which was calculated using the nonlinear fit (variable slope, four parameters) model built into GraphPad Prism software (version 7.03).
(A flow cytometer gives signals particle by particle.)

B1: BA-087-08-32 (antibody, V domains shown)
VH: EVQLVQSGAEVKKPGATVKISCKVSGFTFSHYTMHWIRQSPSRGLEWLGFISYDGNYKYYADSVKGRFTISRDNAKNSLYLQMNSLRAEDTAVYYCARTGWLGPFDYWGQGTLVTVSS
VL: EIVMTQSPATLSVSPGERATLSCRASQSVGSSYLAWYQQKPGKAPKLLIYGAFSRATGVPSRFSGSGSGTDFTLTISSLQPEDFATYYCQQDGSSPWTFGQGTKVEIK
notes: Detected with anti-human IgG and a molecular weight of 146 kDa was used in SPR, so it was tested as a whole IgG; also called BA-087-08-032; BA-087-08-32 (# 6978)
With B1, the EC50 was determined as 0.0171 µg/mL in assay [1] and 0.159 µg/mL in assay [2].

For orientation: EC50 means the concentration giving half of the maximal effect.
